For six substances, inhibition of ghrelin acylation in cells, compounds used and EC50 in the GHS-R1a assay (stably transfected HEK-293T-GHS-R1a cells) results are on record in publication PMC3763810.

The first assay deals with ghrelin O-acyltransferase (GOAT) with a C-terminal 3xFlag tag (mouse) (UniProt P0C7A3).
Sequence of UniProt P0C7A3 (P0C7A3 whole entry): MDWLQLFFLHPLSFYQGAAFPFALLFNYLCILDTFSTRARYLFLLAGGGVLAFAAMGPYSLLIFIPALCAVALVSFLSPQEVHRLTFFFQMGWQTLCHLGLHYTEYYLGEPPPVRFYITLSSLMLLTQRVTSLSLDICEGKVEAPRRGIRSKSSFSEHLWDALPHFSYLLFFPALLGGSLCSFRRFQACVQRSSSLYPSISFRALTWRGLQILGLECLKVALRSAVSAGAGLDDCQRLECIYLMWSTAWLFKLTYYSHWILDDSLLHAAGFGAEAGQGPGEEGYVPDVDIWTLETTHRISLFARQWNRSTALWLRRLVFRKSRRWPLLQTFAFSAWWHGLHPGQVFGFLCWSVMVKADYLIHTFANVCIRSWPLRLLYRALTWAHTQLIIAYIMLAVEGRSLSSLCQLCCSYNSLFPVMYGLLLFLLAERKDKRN
With GO-CoA-Tat (peptide), the inhibition of ghrelin acylation in cells, compounds used at 6 μM turned out to be 75%.

In the next assay the target is growth hormone secretagogue receptor (GHS-R1a) (UniProt Q92847).
Sequence of UniProt Q92847 (Q92847 whole entry): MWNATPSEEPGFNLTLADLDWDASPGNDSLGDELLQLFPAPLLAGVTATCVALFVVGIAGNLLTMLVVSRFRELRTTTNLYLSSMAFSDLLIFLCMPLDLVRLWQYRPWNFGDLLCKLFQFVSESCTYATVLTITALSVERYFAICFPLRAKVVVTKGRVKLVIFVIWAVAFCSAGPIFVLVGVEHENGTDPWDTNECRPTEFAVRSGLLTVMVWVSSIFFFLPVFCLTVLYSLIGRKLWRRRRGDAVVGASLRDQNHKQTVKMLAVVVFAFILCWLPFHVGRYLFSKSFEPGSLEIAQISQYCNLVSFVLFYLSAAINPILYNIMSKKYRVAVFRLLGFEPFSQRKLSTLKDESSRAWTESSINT
The substance Acyl ghrelin (peptide) registered an EC50 in the GHS-R1a assay (stably transfected HEK-293T-GHS-R1a cells) of 18 nM.

In turn, “Amide ghrelin (Ser3 Dap-Octanoyl-Amide) (peptide)” displayed an EC50 in the GHS-R1a assay (stably transfected HEK-293T-GHS-R1a cells) of 19 nM.

Regarding Des-acyl ghrelin (peptide), the EC50 in the GHS-R1a assay (stably transfected HEK-293T-GHS-R1a cells) is more than 10000 nM.

GO-CoA-Tat (peptide) displayed an EC50 in the GHS-R1a assay (stably transfected HEK-293T-GHS-R1a cells) of more than 10000 nM.

Ghrelin28-Oct-CoA (peptide): the EC50 in the GHS-R1a assay (stably transfected HEK-293T-GHS-R1a cells) is 270 nM.

The substance GO-Tat (peptide) registered an EC50 in the GHS-R1a assay (stably transfected HEK-293T-GHS-R1a cells) of 23 nM.
